How the values were obtained:
[1] = target: human mitochondrial complex I (NADH-coenzyme Q oxidoreductase) (human (endogenous in T-REx-293 shRNA-C3))
[2] = target: human mitochondrial complex I (NADH-coenzyme Q oxidoreductase) (human (endogenous in T-REx-293 shRNA-C3)); assay: native gel or EMSA; high-resolution clear native gel electrophoresis (HrCNE, 6.5% gel, 4 °C) of DDM-solubilised mitochondria of shRNA-C3 cells treated with 0.03 mg/mL TAT-NDUFS8 for 0-48 h; immunoblot with anti-NDUFS8 at the complex I location; intensity normalised to complex V (ATPase α subunit)

With “TAT-NDUFS8 fusion protein (from UniProt O00217 35-210)” the complex I in-gel activity (NADH/NBT staining after HrCNE) of shRNA-C3 cells treated with 0.03 mg/mL TAT-NDUFS8 for 48 h; untreated shRNA-C3 cells about 83.6% of the wild type (% of the wild-type activity) [1] was 109 and the intensity of NDUFS8 at the complex I location after 48 h of treatment [2] was 105%.
